From the supplement of paper PMC10567573

B1: FAM50A (parent)
chain: KKREKQREQMEQMKQRIAEENIMK
B2: RTN2 (parent)
chain: SERPLEDLRLRLDHLGWVARGTGS

Variants of: B1
Test: protein stability index of a GFP-peptide fusion (GPS, HEK-293T) (PSI 1-6); higher = more stable
Conditions: c terminus: a fixed tail appended
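Also: lentivirally expressed fusions sorted by FACS into six bins by GFP to DsRed ratio, PSI derived from sequencing read proportions per bin multiplied by bin number.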

Protein stability index, by site and new letter:
K1: T 5.07 | A 4.71 | F 4.22 | N 5.42 | R 4.48 | W 4.46 | L 4.62 | Q 5.15 | G 4.9 | H 4.95 | D 4.87 | S 5.14 | C 4.67 | M 4.67 | E 5.1 | I 4.98 | V 4.71 | P 5.52 | Y 4.95
K2: C 4.76 | F 4.45 | E 5.04 | I 4.63 | M 4.64 | A 4.57 | H 4.98 | G 4.55 | D 4.34 | L 3.67

Variants of: B2
Test: as above
Conditions: c terminus: a fixed tail appended

Protein stability index: each site, then its substitutions
G23: E 3.99 | M 1.87 | C 2.4 | N 2.98 | F 2.52 | I 3.35 | S 2.61 | P 3.34 | H 2.6 | K 3.55 | A 3.6 | T 3.04 | L 2.44
S24: Y 2.12 | D 2.59 | Q 2.61 | N 3.26 | T 2.71 | M 1.76 | W 2.11 | R 2.36 | V 3.15 | E 4.04 | H 2.03
A19: N 3.34 | K 3.34 | P 3.78 | H 2.9 | D 3.31 | E 2.96 | L 1.97 | C 2.58 | G 3.39 | T 3.5 | W 2.3
T22: F 1.3 | M 2 | W 3.11 | H 2.49 | I 2.48 | R 3.6 | C 2.75 | Y 2.79 | L 2.11 | N 3.95 | G 2.23
V18: E 4.85 | T 2.86 | Y 2.67 | H 3.31 | K 3.79 | Q 3.02 | M 3.73 | D 4.31 | R 4.14 | P 3.35 | N 3.81 | W 2.8 | I 3.5
L15: C 2.15 | W 3.5 | G 2.97 | F 2.8 | Q 2.1 | E 2.25 | T 2.26 | A 2.88 | I 2.28 | M 1.89 | Y 2.59
L12: Y 3.11 | I 2.02 | W 2.38 | K 3.13 | T 3.51 | R 2.16 | P 2.47
H14: F 1.51 | Q 1.73 | L 1.93 | W 1.92 | E 2.61 | T 1.99 | P 2.54 | R 2.36 | M 2.47 | I 1.99
D13: Y 2.07 | V 2.88 | G 2.87 | C 2.43 | T 2.34 | S 3.31 | H 1.49 | F 1.07
W17: G 4.08 | E 4.11 | A 4.49 | M 3.49 | H 3.9 | Q 4.42 | Y 3.48 | N 4.65
G21: T 2.08 | K 3.71 | E 2.05 | Q 2.78 | M 1.96 | Y 2.42 | S 2.68 | N 2.83 | I 1.61 | P 2.33 | W 1.68 | V 2.09 | C 1.6
G16: W 1.81 | F 1.98 | P 2.1 | E 3.03 | V 1.55 | Q 3.01 | I 1.75 | A 2.58 | Y 2.9
R20: M 3.12 | P 3.31 | N 3.55 | C 1.86 | F 2.36 | Y 2.34 | E 4.02 | L 1.85 | H 2.77 | K 3.19 | S 4.23 | Q 3.32 | T 3.14
